# According to the supplement of paper PMC10065799, “High-throughput profiling of sequence recognition by tyrosine kinases and SH2 domains using bacterial peptide display” (eLife, 2023):
# What was measured:
# [1] = test system: AncSZ; assay: phosphorylation enrichment, bacterial display (enrichment ratio); higher = better substrate or ligand; peptides without Tyr show the background
# [2] = molecular target: EPHB1 (UniProt P54762); assay: as above
# [3] = molecular target: EPHB2 (UniProt P29323); assay: as above
# Chain of EPHB2 (P29323 whole entry, looked up): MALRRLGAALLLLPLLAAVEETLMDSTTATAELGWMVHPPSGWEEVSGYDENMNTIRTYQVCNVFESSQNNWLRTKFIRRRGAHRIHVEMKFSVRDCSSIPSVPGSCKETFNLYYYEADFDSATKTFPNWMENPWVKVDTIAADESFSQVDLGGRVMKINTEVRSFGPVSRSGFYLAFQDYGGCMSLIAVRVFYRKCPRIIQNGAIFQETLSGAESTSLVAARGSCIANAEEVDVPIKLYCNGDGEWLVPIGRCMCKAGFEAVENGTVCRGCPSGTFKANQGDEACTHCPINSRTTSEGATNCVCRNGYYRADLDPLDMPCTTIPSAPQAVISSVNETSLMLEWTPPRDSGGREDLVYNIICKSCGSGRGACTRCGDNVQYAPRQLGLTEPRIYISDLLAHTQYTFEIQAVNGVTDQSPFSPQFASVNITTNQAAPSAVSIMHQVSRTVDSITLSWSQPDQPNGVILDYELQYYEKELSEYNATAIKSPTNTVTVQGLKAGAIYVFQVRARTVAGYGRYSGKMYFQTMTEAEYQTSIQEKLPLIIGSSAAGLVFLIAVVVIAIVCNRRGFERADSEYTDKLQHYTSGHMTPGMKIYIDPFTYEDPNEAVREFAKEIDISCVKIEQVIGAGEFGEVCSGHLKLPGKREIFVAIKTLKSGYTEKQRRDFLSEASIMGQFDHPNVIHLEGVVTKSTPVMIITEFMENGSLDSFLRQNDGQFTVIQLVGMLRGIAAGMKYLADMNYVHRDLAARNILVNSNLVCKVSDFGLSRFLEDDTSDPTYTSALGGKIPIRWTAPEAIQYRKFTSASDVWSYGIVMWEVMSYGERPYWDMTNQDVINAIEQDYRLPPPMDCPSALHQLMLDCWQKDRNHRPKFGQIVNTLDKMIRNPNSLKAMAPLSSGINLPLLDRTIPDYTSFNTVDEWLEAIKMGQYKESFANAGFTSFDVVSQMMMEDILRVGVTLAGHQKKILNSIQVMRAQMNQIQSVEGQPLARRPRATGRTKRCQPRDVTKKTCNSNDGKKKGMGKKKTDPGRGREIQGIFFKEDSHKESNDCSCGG
# [4] = molecular target: FGFR1 (UniProt P11362); assay: as above
# Chain of FGFR1 (P11362 whole entry, looked up): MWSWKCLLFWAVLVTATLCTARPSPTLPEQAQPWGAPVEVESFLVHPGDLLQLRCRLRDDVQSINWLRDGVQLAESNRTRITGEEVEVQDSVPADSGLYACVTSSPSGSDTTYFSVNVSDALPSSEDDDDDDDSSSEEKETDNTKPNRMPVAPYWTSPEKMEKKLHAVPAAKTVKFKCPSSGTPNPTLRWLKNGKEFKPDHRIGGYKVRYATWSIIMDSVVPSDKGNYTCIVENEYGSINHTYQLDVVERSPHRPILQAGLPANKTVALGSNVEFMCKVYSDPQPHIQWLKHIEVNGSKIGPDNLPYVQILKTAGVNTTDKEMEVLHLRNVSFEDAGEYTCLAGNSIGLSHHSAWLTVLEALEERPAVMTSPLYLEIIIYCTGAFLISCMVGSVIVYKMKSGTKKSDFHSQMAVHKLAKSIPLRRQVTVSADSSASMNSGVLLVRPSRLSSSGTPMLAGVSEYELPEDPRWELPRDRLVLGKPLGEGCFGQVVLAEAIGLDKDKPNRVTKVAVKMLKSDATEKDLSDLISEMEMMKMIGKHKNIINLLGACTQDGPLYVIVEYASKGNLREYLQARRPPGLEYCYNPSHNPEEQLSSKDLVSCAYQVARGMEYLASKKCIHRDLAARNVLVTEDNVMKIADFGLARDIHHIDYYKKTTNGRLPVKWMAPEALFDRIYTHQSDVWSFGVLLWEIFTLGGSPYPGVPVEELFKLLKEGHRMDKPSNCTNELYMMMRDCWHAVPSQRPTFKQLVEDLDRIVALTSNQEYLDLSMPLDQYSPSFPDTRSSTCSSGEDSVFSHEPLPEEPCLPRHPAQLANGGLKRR
# [5] = molecular target: FGFR3 (UniProt P22607); assay: as above
# [6] = test system: Fer (mouse); assay: as above
# [7] = molecular target: Fes (UniProt P07332); assay: as above
# [8] = molecular target: Fyn (UniProt P06241); assay: as above
# Chain of Fyn (P06241 whole entry, looked up): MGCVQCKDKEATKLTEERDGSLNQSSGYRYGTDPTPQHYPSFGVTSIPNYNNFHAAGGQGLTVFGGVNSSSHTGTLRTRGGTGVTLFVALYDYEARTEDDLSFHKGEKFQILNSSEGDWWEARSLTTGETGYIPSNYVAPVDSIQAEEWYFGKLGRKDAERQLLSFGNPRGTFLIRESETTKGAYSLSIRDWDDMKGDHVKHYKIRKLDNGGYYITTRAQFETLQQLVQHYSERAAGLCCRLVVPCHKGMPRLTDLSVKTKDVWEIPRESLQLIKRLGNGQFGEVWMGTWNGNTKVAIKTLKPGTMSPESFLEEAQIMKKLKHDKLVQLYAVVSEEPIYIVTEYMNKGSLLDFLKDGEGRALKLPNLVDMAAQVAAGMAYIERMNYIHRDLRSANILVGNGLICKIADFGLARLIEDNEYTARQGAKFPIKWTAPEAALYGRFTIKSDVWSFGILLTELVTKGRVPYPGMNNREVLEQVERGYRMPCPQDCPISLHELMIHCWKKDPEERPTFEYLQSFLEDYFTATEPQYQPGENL
# [9] = molecular target: Hck (UniProt P08631); assay: as above
# Chain of Hck (P08631 whole entry, looked up): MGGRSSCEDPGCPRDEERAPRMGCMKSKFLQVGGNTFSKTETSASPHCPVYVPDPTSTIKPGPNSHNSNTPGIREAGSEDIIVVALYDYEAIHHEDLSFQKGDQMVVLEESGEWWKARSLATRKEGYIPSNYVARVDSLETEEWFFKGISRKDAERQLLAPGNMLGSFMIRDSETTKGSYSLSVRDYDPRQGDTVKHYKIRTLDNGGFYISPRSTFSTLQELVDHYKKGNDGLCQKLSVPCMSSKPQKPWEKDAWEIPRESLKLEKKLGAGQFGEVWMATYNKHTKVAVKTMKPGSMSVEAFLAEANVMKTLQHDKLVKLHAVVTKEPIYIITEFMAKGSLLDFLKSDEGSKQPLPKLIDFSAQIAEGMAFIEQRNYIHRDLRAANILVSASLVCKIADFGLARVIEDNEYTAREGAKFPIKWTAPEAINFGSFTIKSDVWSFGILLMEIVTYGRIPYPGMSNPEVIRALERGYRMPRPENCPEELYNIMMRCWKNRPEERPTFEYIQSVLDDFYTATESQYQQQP
# [10] = molecular target: Jak2 (UniProt O60674); assay: as above
# Chain of Jak2 (O60674 whole entry, looked up): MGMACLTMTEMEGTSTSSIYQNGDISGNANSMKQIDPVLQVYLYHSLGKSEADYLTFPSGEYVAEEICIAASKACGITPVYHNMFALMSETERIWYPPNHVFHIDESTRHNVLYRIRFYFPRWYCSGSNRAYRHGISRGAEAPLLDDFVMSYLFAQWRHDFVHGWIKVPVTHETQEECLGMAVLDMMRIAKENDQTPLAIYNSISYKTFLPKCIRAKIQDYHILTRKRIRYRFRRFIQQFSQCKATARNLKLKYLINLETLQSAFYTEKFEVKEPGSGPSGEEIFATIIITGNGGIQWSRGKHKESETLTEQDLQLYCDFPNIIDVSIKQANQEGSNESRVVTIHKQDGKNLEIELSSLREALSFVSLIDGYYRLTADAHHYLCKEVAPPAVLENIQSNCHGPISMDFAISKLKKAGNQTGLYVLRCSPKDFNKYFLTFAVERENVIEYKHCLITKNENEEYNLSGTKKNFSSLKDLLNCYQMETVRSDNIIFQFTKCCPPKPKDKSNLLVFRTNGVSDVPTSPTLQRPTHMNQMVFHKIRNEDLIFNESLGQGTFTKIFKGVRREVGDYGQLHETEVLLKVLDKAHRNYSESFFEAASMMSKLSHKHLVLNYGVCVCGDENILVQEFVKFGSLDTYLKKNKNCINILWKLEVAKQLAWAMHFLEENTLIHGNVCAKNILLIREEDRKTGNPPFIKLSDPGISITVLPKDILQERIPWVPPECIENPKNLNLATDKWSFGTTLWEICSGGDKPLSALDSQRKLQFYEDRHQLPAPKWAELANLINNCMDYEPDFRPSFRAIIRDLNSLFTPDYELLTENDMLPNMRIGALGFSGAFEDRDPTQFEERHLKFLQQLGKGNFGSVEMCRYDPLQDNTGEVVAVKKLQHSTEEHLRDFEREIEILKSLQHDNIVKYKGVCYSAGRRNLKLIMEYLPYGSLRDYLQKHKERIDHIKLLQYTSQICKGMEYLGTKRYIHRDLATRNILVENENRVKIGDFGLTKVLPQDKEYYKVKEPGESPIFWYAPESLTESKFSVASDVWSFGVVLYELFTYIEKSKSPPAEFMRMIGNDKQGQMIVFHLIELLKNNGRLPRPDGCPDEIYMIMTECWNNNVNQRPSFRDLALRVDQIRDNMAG
# [11] = molecular target: MERTK (UniProt Q12866); assay: as above
# [12] = test system: c-Abl (mouse); assay: as above
# [13] = test system: c-Src; assay: as above
# [14] = molecular target: Grb2 SH2 (UniProt P62993); assay: SH2 binding enrichment of the phosphorylated peptide, bacterial display (enrichment ratio); higher = better substrate or ligand; peptides without Tyr show the background
# [15] = molecular target: SHP2-C SH2; assay: as above
# [16] = molecular target: c-Src SH2; assay: as above
# 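Throughout, for SH2 binding enrichment of the phosphorylated peptide, bacterial display: peptide library displayed on the E. coli surface as eCPX fusions, selected cells deep-sequenced, score is each peptide's frequency after selection divided by its frequency in the input.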
# 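Throughout, for phosphorylation enrichment, bacterial display: 11-residue human phosphosite peptides and single-mutation variants displayed on the E. coli surface, counted by deep sequencing, each peptide's frequency after selection divided by its frequency in the unselected input library; frequency after pTyr selection over input frequency; kinase dosed for 20-30% of maximal phosphorylation in three min.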
# Chain of EPHB1 (P54762 whole entry, looked up): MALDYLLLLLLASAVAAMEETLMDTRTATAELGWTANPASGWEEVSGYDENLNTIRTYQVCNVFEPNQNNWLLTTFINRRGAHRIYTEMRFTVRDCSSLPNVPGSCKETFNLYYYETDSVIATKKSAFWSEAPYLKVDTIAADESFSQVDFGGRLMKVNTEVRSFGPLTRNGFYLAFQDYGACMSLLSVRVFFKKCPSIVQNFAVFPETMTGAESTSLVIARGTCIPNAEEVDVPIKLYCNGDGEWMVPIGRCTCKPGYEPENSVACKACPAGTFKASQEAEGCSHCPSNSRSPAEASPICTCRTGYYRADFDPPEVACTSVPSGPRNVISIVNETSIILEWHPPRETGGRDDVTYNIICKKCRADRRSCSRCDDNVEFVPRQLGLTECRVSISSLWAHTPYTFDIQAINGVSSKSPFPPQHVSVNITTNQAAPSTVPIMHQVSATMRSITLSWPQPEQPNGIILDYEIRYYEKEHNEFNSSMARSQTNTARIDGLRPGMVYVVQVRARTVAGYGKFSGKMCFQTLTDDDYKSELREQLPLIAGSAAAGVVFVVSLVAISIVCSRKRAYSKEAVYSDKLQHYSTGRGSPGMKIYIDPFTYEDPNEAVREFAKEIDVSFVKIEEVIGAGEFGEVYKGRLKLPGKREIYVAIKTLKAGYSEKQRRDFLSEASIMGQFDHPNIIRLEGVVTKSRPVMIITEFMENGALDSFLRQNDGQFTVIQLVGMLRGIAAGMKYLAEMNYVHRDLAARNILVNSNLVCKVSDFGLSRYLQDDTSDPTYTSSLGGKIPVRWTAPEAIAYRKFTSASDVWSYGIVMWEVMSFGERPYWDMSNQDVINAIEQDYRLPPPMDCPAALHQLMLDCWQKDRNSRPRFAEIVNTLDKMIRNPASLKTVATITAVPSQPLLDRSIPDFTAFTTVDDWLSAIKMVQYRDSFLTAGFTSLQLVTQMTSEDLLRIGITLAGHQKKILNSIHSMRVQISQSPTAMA
SH2 binding enrichment [14],SH2 binding enrichment [15],SH2 binding enrichment [16],Sequence,phosphorylation enrichment [1],phosphorylation enrichment [2],phosphorylation enrichment [3],phosphorylation enrichment [4],phosphorylation enrichment [5],phosphorylation enrichment [6],phosphorylation enrichment [7],phosphorylation enrichment [8],phosphorylation enrichment [9],phosphorylation enrichment [10],phosphorylation enrichment [11],phosphorylation enrichment [12],phosphorylation enrichment [13]
11,1.46,1.92,QLPATYMNLGP [MST1R_Y1360],0.547,2.99,0.548,0.766,0.616,0.406,0.747,0.706,0.741,1.42,6.84,0.87,1.23
0.807,0.398,0.478,QMEKIYTQQIQ [CCNB1IP1_Y125],1.12,0.747,0.466,0.673,0.5,0.651,1.06,0.663,0.628,1.07,1.19,1.03,1.55
0.894,0.732,0.467,QMVGKYASSFM [AVPR2_Y124_M123K_YF],0.613,0.772,0.341,0.516,0.626,0.431,0.992,0.564,0.413,0.774,0.642,1.15,0.635
0.581,0.506,0.347,QNTGHYSSDNT [TMEFF2_Y361],0.461,0.446,0.442,0.474,0.691,0.43,0.532,0.545,0.544,0.443,0.544,0.49,0.704
0.95,0.735,0.467,QNTGHYSSENT [TMEFF2_Y361_D364E],0.66,0.814,0.389,0.828,0.548,0.868,1.33,0.903,0.468,0.575,0.908,0.561,0.588
0.644,0.635,0.497,QPGTDYKIFRF [FN1_Y1970_L1974R_YF],1.77,0.754,0.567,1.22,1.28,0.756,2.04,0.529,1.18,1.64,1.17,1.74,1.89
0.945,0.942,0.709,QPRDIYHQTWA [GBA_Y244_G241R],0.821,0.574,0.627,2.91,1.38,0.526,0.913,1.77,2.72,0.787,3.54,1.15,1.99
0.922,0.834,0.666,QQIYTYDSGIH [JUP_Y22_T19I],1.02,3.57,1.98,1.86,1.84,4.16,0.923,10.3,4.94,0.788,11.1,0.91,6.68
1.57,0.699,0.644,QQLVAYFSKHA [SRC_Y232_YF],0.972,0.664,0.547,0.621,0.813,0.48,1.15,0.53,0.652,0.936,0.573,0.806,0.744
0.688,1.12,0.698,QRHYVYYYSYL [PTEN_Y176_R173H],1.79,3.51,2.16,7.4,6.74,1.29,1.91,3.5,3.31,5.22,8.74,1.84,5.11
1.26,1.58,2.05,QRIYQYIQSRF [DYRK1B_Y273],3.1,6.1,1.63,1.25,2,5.21,2.48,1.68,3.87,1.82,6.41,3.62,3.17
1.58,0.944,0.727,QRRLVYFEGGA [RYR1_Y245_YF],3.89,1.18,0.995,1.34,0.902,1.33,1.39,1.02,1.13,0.825,0.531,0.912,0.376
0.787,0.446,0.577,QSGGQYSSQGL [TNNI3K_Y788_A785G],0.655,0.506,0.434,0.486,0.854,0.401,0.779,0.488,0.72,0.835,0.4,0.676,0.495
1.13,0.794,0.831,QSSALYEDCFL [ASS1_Y83_R86C_YF],1.92,10.4,7.25,0.852,0.785,16.4,2.83,3.02,2.28,1.96,4.12,1.15,4.69
0.823,0.716,0.794,QTSSNYDDAMQ [ZNF281_Y531_I527T],1.06,0.825,1.14,0.86,0.975,0.741,1.02,0.756,0.57,0.884,0.58,0.476,0.44
0.849,0.521,0.542,QWRTKYETDAI [MYH7_Y1375],0.971,0.663,0.432,0.4,0.624,0.543,1.36,0.643,0.355,1.74,0.545,1.04,0.528
0.98,0.58,0.508,RAMPVYKEAEH [TP63_Y231_K233E],1.02,0.561,0.67,0.763,0.663,0.602,1.01,0.511,0.664,0.832,0.503,0.665,0.563
0.809,0.489,0.472,RASSVYTRSTG [CCR5_Y339],0.651,0.591,0.552,0.48,0.47,0.552,1.5,0.608,0.741,0.655,1.21,0.721,0.875
1.08,0.697,0.556,RAWPPYTVAAD [ANKZF1_Y572_R569W],0.884,0.678,0.517,0.573,0.589,0.631,1.11,0.571,0.597,0.683,0.475,0.737,0.618
0.825,0.605,0.391,RCQDLYSARDL [SART1_Y249_R245C],1.95,1.63,1.06,0.876,1.22,2.59,1.76,4.61,9.83,1.97,4.7,1.41,6.42
0.776,0.436,0.479,RDWSHYFKIIE [KRT18_Y129],1.46,0.824,1.08,0.687,0.997,0.412,1.72,0.793,0.57,1.35,0.296,0.823,0.705
0.794,0.571,0.483,REATAYLHGRL [AGXT_Y297_A295T],0.665,0.539,0.662,0.534,0.533,0.615,0.793,0.595,0.488,0.871,0.374,0.63,0.521
1.16,0.747,0.552,REEKNDKLKET [BCLAF1_Y459_Y459D],1.32,0.773,0.606,0.868,0.908,0.441,1.11,0.833,0.788,0.685,0.657,0.596,0.356
1.08,1.39,0.724,REHTVYWEPRK [MAGEA4_Y240_G241W],1.1,4.33,1.19,2.31,2.42,0.607,0.831,1.39,5.92,0.888,3.77,8.8,1.85
0.834,0.503,0.438,RELGKYGLQAF [ALDH2_Y497_E496K_YF],1,0.489,0.577,0.578,0.582,0.537,0.926,0.526,0.584,0.774,0.612,0.786,0.491
1.42,1.27,0.855,RETPLYKACER [ASB2_Y162],0.777,0.441,0.573,0.457,0.759,0.504,1.13,0.457,0.577,0.632,0.527,1.02,0.568
0.894,0.746,0.765,RFLRGYEQDAF [HLA-A_Y137_R138E_YF],0.935,0.498,0.555,0.466,0.586,0.51,1.21,0.636,0.629,1.36,0.536,0.778,0.533
0.935,0.614,0.53,RFLRGYHQDAF [HLA-A_Y137_R138H_YF],1.66,0.591,0.622,0.578,0.628,0.569,0.886,0.569,0.553,0.815,0.645,1.33,0.81
1.61,1.31,0.837,RFVVLYDAELT [ERCC4_Y581_YF],1.58,1.38,1.15,0.841,0.763,0.672,1.9,0.657,0.91,1.72,0.979,0.876,0.807
